Test results published in PMC4789280, “Characterisation of the broad substrate specificity 2-keto acid decarboxylase Aro10p of Saccharomyces kudriavzevii and its implication in aroma development” (Microbial Cell Factories, 2016).

B1: SkAro10p (Saccharomyces kudriavzevii IFO 1802) (protein)
chain: MTPVTINTFVNQKEPHLVSNELATISFGEYIFRRLLSTGTKSVFGVPGDFNLSLLEYLYAPSVESAGLKWIGTCNELNAAYAADGYSRYSNNIGCLVTTFGVGELSALNGVAGSFAENVKVLHIVGVAKSIDSRSDNFRDRNMHHLVPQLHGSNFKGPNHKVYHDMVKDRVACSVAYLEDIETACDQVDNVIRDIYKYSKPGYIFVPADFADMSVTCENLINVPHISQQDCITYPSQIQLFDILDRITSWMYSSKTPAILGDVLTDRYGVSEILNKLIYATGIWNFSTVMGKSVIDEANPKYMGQYNGKEGLRQVYEHFESCDLVLHFGVDINEINNGHYTFTYKPNAKIIQFHPNYIRFVDTKYGHEQMFEGINFAPVLMELYKGIDVSRLSLQYDSGVTSYTNETMQLEDPTNDQSNNITQVHLQKVMPKFLSPGDVVVCETGSFQFSVRDFAFPTQLKYISQGFFLSIGMALPAALGVGIAMQDFPNAHISDENIGEGYKPRLILFEGDGAAQMTIQELSTILKCHITIDIFIWNNNGYTIERAIMGPTRAYNDVMSWKWTKLLEAFGDFDRKHTNSTVIEYPSKLAMKLEELKSSNTRDGIELVEVKLGVLDFPEQLKCMVDAAALKRNKK
notes: full-length ARO10 allele on plasmid pG-SkARO10-kX (pGREG526); expressed in S. cerevisiae CEN.PK 711-7C pdc1 pdc5 pdc6 aro10 thi3 null; cell extract
B2: ScAro10p (Saccharomyces cerevisiae S288C) (protein)
chain: MAPVTIEKFVNQEERHLVSNRSATIPFGEYIFKRLLSIDTKSVFGVPGDFNLSLLEYLYSPSVESAGLRWVGTCNELNAAYAADGYSRYSNKIGCLITTYGVGELSALNGIAGSFAENVKVLHIVGVAKSIDSRSSNFSDRNLHHLVPQLHDSNFKGPNHKVYHDMVKDRVACSVAYLEDIETACDQVDNVIRDIYKYSKPGYIFVPADFADMSVTCDNLVNVPRISQQDCIVYPSENQLSDIINKITSWIYSSKTPAILGDVLTDRYGVSNFLNKLICKTGIWNFSTVMGKSVIDESNPTYMGQYNGKEGLKQVYEHFELCDLVLHFGVDINEINNGHYTFTYKPNAKIIQFHPNYIRLVDTRQGNEQMFKGINFAPILKELYKRIDVSKLSLQYDSNVTQYTNETMRLEDPTNGQSSIITQVHLQKTMPKFLNPGDVVVCETGSFQFSVRDFAFPSQLKYISQGFFLSIGMALPAALGVGIAMQDHSNAHINGGNVKEDYKPRLILFEGDGAAQMTIQELSTILKCNIPLEVIIWNNNGYTIERAIMGPTRSYNDVMSWKWTKLFEAFGDFDGKYTNSTLIQCPSKLALKLEELKNSNKRSGIELLEVKLGELDFPEQLKCMVEAAALKRNKK

Columns and labels:
[1] = substrate: O=C(O)C(=O)Cc1ccccc1; assay: decarboxylase activity, cell extract of decarboxylase-null yeast, Michaelis-Menten; assay type: biochemical, Saccharomyces kudriavzevii; details: cell extract from aerobic ethanol-limited chemostat culture, phenylalanine as nitrogen source
[2] = substrate: O=C(O)C(=O)Cc1ccccc1; assay: cells, lysate or membranes; details: cell extract from aerobic ethanol-limited chemostat culture, phenylalanine as nitrogen source

Protein | Km [1] [µM] | Km [2] [µM]
B1 | 70 ± 5 | –
B2 | – | 150 ± 10
